The data set is described as follows: Membrane permeance of probe peptides in living cells. Format: cell-based. Here is the method:
The disclosed tag sets preferentially label cell surfaces and are membrane impermeant in living cells, which is of particular use in labeling cell-surface receptors (i.e., TfR1 and EGFR) and more particularly of use in monitoring trafficking and endocytosis.
The disclosed methods were tested in transfected human osteosarcoma cells (U-2 OS). A pDisplay vector was used to target CoilZ-EGFP and untagged EGFP to the cell surface. This construct includes a C-terminal fusion to the transmembrane domain of the platelet derived growth factor receptor. As expected, both CoilZ-EGFP and untagged EGFP localized to the cell surface, and green fluorescence was observed within 24 h of transfection. Then the cells were blocked with 6% BSA and 10% FBS for 30 minutes at 37° C. and then contacted with an AF647-conjugated CoilY probe (CoilY-AF647), 30 min at 4° C. Cells were fixed before imaging by confocal fluorescence microscopy. The probe peptides are membrane impermeant; only cell-surface EGFP was accessible to CoilY-AF647 for labeling. Colocalization of green fluorescent CoilZ-EGFP with CoilY-AF647 was observed.
VIP probe peptides are live cell impermeant. This makes them ideal for imaging and tracking receptor internalization. […]
VIPER labeling was compared to that of standard fluorescence labeling techniques, namely a fluorescent protein fusion to mCherry and antibody labeling.

These results are taken from patent US11360100B2, “Methods and compositions useful in detecting proteins” (OREGON HEALTH & SCIENCE UNIVERSITY, priority 2016, dated 2022).

In the case of “CoilR: coiled-coil peptide, SEQ ID NO: 1, designed from RR12EE345L (LEIRAAFLRQRNTALRTEVAELEQEVQRLENEVSQYETRYGPL)”, the cell membrane permeance entry is “cell-membrane impermeance”.
